The target of the assay is T1, Msi3, the sole Hsp110 of Candida albicans (Candida albicans, UniProt Q96VB9 1-701).
T1 construct: Msi3 (Hsp110) of Candida albicans; ORF amplified from genomic DNA and cloned into the pSMT3 vector; source: E. coli Rosetta2(DE3)pLysS, purified (HisTrap, Ulp1 cleavage, second HisTrap, HiTrap Q); not shown: His6, N-terminal, cleaved; Smt3, N-terminal, cleaved
T1 sequence (looked up): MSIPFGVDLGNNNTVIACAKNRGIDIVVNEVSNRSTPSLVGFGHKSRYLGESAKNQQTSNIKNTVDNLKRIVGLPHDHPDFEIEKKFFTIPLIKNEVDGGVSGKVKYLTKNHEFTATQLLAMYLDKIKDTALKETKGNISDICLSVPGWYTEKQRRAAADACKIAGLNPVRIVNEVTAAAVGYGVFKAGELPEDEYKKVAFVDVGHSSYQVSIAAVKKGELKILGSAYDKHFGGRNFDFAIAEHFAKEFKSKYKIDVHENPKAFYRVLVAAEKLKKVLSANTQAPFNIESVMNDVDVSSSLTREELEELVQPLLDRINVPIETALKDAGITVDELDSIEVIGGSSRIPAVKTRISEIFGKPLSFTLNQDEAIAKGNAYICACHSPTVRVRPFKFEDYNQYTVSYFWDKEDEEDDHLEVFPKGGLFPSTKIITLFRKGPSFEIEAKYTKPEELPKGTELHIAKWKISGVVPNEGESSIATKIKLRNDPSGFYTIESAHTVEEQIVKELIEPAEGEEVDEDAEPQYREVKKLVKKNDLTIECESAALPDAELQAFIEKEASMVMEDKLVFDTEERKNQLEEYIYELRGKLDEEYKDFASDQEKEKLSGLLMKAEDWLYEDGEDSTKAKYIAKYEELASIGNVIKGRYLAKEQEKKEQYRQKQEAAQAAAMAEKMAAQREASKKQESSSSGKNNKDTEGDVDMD
The experiment in a line: native gel or EMSA; Msi3 (5 uM) and Ssa1 (10 uM) mixed with 2 mM ATP in buffer D (25 mM Hepes-KOH pH 7.5, 50 mM KCl, 10 mM Mg(OAc)2, 1 mM DTT), 45 min on ice; 10% native gel, Coomassie; with or without 100 uM 2H. Particulars: both partners purified. On the technique in general: Mobility shift assays separate free from complexed probe on a gel.

B1: Ssa1, the major cytosolic Hsp70 of S. cerevisiae (natural protein)
chain: not shown
notes: Ssa1, Hsp70 from Saccharomyces cerevisiae; source: Pichia pastoris GS115, purified (HiTrap Q, butyl-Sepharose, ATP agarose)
For B1, the binding result is on record as “binds”.

The record behind these values is paper PMC10182041, “A first-in-class inhibitor of Hsp110 molecular chaperones of pathogenic fungi” (Nature Communications, 2023).
